Data from patent publication US20140295520A1.

Experiments:
[1] = target: EutSMNLK (recombinant shell of EutS, EutM, EutN, EutL and EutK) (Salmonella enterica LT2) (UniProt Q9ZFV7); assay: cell-based or functional assay
[2] = target: EutMNLK (EutM, EutN, EutL and EutK co-expressed without EutS) (Salmonella enterica LT2); assay: cell-based or functional assay
[3] = target: EutS-G39V mutant (Salmonella enterica LT2); assay: cell-based or functional assay
[4] = target: EutS (recombinant EutS shell/compartment) (Salmonella enterica LT2) (UniProt Q9ZFV7); assay: cell-based or functional assay
[5] = tested on: EutS (recombinant EutS shell/compartment)

Substance	% cells with green flourescent foci (E. coli C2566) [1] [%]	% cells with green flourescent foci (E. coli JM109) [1] [%]	% cells with green flourescent foci (E. coli C2566) [2] [%]	% cells with green flourescent foci (E. coli JM109) [2] [%]	% cells with green flourescent foci (E. coli C2566) [3] [%]	% cells with green flourescent foci (E. coli JM109) [3] [%]	% cells with green flourescent foci (E. coli C2566) [4] [%]	% cells with green flourescent foci (E. coli JM109) [4] [%]	fluorescent localization in E. coli [5]
Enhanced Green Fluorescent Protein (EGFP)	0.2	1.8	0.1	0.8	0.3	2.9	0.5	0.6	
EutC^1-19-BTL-2 fused to EGFP (modular cassette)									Upon co-expression of EutS, the majority of the tagged lipase localizes to a compartment formed somewhat off-center in E. coli
EutC^1-19-EGFP	84	79					87	84	
